Results taken from article PMC5270677.

Biological target: Quiescin-sulfhydryl oxidase (QSOX), recombinant human (human) (UniProt O00391)
Assay: SPR; Biacore 3000; […]; 30 ul/min in PBS, 0.05% Tween 20, 3 mM EDTA at 25°C; 1:1 Langmuir model; […]

Chain of unfolded N-terminal region of human PrP, HuPrP(23-145) (P04156 23-145): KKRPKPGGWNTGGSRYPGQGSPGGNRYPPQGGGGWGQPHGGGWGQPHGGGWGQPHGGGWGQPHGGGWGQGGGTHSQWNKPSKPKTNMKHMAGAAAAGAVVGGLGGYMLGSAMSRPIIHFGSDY
Chain of Quiescin-sulfhydryl oxidase (QSOX), recombinant human (human) (O00391 30-709): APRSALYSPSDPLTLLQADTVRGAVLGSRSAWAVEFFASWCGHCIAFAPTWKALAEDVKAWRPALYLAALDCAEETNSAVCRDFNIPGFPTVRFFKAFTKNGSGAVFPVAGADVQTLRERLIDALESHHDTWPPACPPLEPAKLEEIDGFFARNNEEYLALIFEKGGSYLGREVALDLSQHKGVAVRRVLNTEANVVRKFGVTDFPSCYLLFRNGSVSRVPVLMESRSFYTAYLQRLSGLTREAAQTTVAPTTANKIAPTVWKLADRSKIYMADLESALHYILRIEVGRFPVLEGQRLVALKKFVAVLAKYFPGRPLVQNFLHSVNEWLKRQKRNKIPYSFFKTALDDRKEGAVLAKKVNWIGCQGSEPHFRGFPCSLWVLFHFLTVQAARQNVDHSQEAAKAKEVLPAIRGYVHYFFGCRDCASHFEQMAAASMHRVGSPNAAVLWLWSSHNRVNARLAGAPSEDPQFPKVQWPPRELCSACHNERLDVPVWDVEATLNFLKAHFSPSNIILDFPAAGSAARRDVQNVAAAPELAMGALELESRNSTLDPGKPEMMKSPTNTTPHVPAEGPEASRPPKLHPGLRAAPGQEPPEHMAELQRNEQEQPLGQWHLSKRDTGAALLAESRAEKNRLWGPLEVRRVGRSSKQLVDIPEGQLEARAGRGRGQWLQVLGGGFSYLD

unfolded N-terminal region of human PrP, HuPrP(23-145) (from UniProt P04156 23-145) (domain or fragment)
Kd: 3.6 nM
koff: 4.78e-05 s⁻¹
kon: 13200 M⁻¹ s⁻¹
